# Data reported in patent publication US20240327495A1 (OXFORD UNIVERSITY INNOVATION, published 2024).
# Target: C. difficile toxin B glucosyltransferase domain (GTD, residues 2-543) (Clostridium difficile, UniProt P18177 2-543)
# Sequence (P18177 2-543 limits assumed): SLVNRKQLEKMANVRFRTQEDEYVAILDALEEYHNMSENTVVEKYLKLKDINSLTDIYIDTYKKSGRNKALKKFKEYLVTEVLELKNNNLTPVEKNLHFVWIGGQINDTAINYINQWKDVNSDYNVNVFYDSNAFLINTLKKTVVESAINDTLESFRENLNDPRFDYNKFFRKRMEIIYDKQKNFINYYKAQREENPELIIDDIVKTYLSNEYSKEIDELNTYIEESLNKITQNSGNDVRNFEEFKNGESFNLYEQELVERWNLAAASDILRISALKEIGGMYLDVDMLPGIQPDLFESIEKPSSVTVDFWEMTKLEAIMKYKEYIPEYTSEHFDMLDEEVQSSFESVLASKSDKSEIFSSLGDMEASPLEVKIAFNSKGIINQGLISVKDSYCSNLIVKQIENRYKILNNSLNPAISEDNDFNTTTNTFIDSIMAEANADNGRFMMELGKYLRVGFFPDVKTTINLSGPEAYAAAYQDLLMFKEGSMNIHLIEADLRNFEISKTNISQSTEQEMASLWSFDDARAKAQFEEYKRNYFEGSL
binder,measurement,value
"GT01 R63A (designed binder, not shown: small tags and cut ends) DFVLDNEGNPLENGGTYYILSDYGRQLFGGIRAAPTGNERCPLTVVQSLFRNHRDKGIGTIISSPYAIRFIAEGHPLSLKFDSFAVIMLCVGIPTEWSVVEDLPEGPAVKIGENKDAMDGWFRLERVSDDEFNNYKLVFCPQQAEDDKCGDIGISIDHDDGTRRLVVSKNKPLVVQFQKLDKESL",EC50 (read off the curve),~7 nM
